Experimental data published in a protein production outcome set (Wang et al. 2014).

Assay: label from the status in PepcDB records

| Sequence | protein production |
| --- | --- |
| MNLETKPIAETPNFIVLDQYEKIEQSGSYQSENRLEAELIADLQNQGYEYRKDLNSQSRLLENLRAQLQRLNDVAFSDGEWARFLTEYLDRPAENITDKTRKIHDDHIYDFAFDDGRLKNIYLLDKKNLARNHVQLINQFEQTGTHANRYDVTVLVNGLPLVQIELKKRGVAVREAFNQVHRYSKESFNSGNSLFKFLQIFVISNGTDTRYFANTTKRDKNSFDFTMNWARSDNHPIKDLKDFTATFLQKSVLLSVLLHYSVFDANDTLLIMRPYQIAAAERILWKINSSAQAKNWSGPESGGYVWHTTGSGKTLTGFKAARLATESAFIDKVFFVVDRKDLDYQTMKEYQRFSPDSVNGSESTAGLKRNLEKDGNKIIVTTIQKLNNLMKSEDNLPVYHRQVVFIFDECHRSQFGEAQKNLKKKFKKFCQFGFTGTPIFPENALGAETTAGVFGRELHSYVITDAIRDEKVLKFKVDYNDVRPQFKAVEAEQDEKELSAAENRQALLHPERIREITQYILSRFRQKTHRLNAGGKGFNAMFAVSSVDAAKCYYEAFKTQQAGSLHPLKTATIFSFAANEEQNAVGEIVDETFEPEAMDSSAKEFLQAAINDYNACFKTNFGTDSKAFQNYYRDLAKRVKNREVDLLIVVGMFLTGFDAPTLNTLFVDKNLRYHGLMQAFSRTNRIYDATKTFGNIVCFRDLEQATIDAITLFGDKNTKNVVLEKSYEEYMNGYTDSQTGEARRGYLDVAKELHERFPDPDKIETEKDKKDFAKLFGEYLRAENVLQNYDEFAALRELQNVDAADEDAMKAFQEKYYLSDEDVQEMRKVPMPSERAVQDYRSAYNDIRDWLRRQKAGEQKEQSKIDWDDVVFEVDLLKSQEINLDYILQLVFEHHKKIKGKAELVEEIRRIIRASIGHRAKEGLIVDFINDTDLDKVPDVPAILETFYTYAQEVMRHEAAGLIAAEGLNETAAKRYLTGSLKRGYASENGTELTETLPKMSPLNPQYLTKKQSVFQKIAAFVEKFAGIGADI | failed |
| LKASGVQAQMAKQQEQDPTNLYISNLPLSMDEQELENMLKPFGQVISTRILRDSSGTSRGVGFARMESTEKCEAVIGHFNGKFIKTPPGVSAPTEPLLCKF | not failed |
| MTENAEKFLWGVATSAYQIEGATQEDGRGPSIWDAFAQRPGAIRDGSTGEPACDHYRRYEEDIALMQSLGVRAYRFSVAWPRILPEGRGRINPKGLAFYDRLVDRLLASGITPFLTLYHWDLPLALEERGGWRSRETAFAFAEYAEAVARALADRVPFFATLNEPWCSAFLGHWTGEHAPGLRNLEAALRAAHHLLLGHGLAVEALRAAGARRVGIVLNFAPAYGEDPEAVDVADRYHNRFFLDPILGKGYPESPFRDPPPVPILSRDLELVARPLDFLGVNYYAPVRVAPGTGTLPVRYLPPEGPATAMGWEVYPEGLYHLLKRLGREVPWPLYVTENGAAYPDLWTGEAVVEDPERVAYLEAHVEAALRAREEGVDLRGYFVWSLMDNFEWAFGYTRRFGLYYVDFPSQRRIPKRSALWYRERIARAQT | not failed |
| MTEAPRKITDDPYGAWHLIRRLVMEQASAYWRRYALAFGLMAIAAAATSGSAFLLGKVINQAYVDRDLQGIMFWSVVTLVVFSLKGAATYGQSVILTQIKNAILANNQRRMFHKLMSESIGFFSQRHSSEFLARLTAGANSVTEVLNLLINAIGRDLLSLIGLVIVMVVQDPFMALFGLLVAPPAAFVVRKLVKRVKGLALTQFTGNAQILETMQESLQGIRTVKAFSLEKTMSDRIDANIAAVQANADKMAKVSNRSSPLMETLGGFAVAASLMYGGYRVVATGATPGEFFSFLTAFLLAYEPAKRLARLNIELNSGLVGARMLLEIIDSPPSEPDDSHKPALQLTEARVEFDHVSFAYRPDEPVLNAMSFVAEPGKMTALVGPSGGGKSTVLALLLRLYEVQSGEIRIDGQSTSTVSRESLRRQTAYVGQDVYLFRDTVRANIAFGKLGATEDEIVAAAKAACAHDFIMGFPLGYDTPVGEHGAQLSGGQRQRIAVARALLRDAPIVLLDEATAALDSESEKLVQEAIDRLARGRTTIVIAHRLHTIMHADSILVVEAGEIVEQGRHDDLLRRSGRYASFFRLQQRHATPLAPADATA | failed |
| MKIGVYGASGRIGKLLLEELKGGYKGLALSSVFVRQKCETDFSSFSHAPLVTNDLKAFVRACECVIDFSLPKGVDNLLEALLECPKILVSGTTGLEKETLEKMQQLALKAPLLHAHNMSIGIMMLNQLAFLTSLKLKDADIEIIETHHNLKKDIPSGTALSLYETCAKARGYDEKNALITHREGLRSKESIGIAALRGGDVAGKHTIGFYLEGEYIELSHTATNRSIFAKGALEVALWLKDKAAKKYEINEMFG | failed |
| MLRRIVALAAVAAGGMMLSKTFRKSRDSGYTSSVENFIEVNVPVSTAYNQWTQFEEFPRFMKGVREVQQIDDTHLHWRAEIAGKEEEWDAEITEQVPDQRIAWHSTNGAKNSGVVSFYGISDSKTRVVLKMDYGPRTFLEGLGDALGAVKARTSEDLRCFKEFLESRGKETGAWRGSVGQH | failed |
| MAAKPGIPKGTRDFSPVEMAKRNYIFNTIRDVFHLFGYQQIETPSMENLSTLMGKYGDEGDKLLFKIQNSGDYFNGITDEELLSRNAVKLASKFCEKGLRYDLTVPFARYVVMHRDEISFPFKRYQIQPVWRADRPQKGRYREFYQCDADVVGSNSLLNEVELVQMIDRVFGKFGVRVSIKINNRKILTGIAEIIGEADKIVDITVAIDKLDKIGLENVNAELASKGIPQEAIDKLQPIILLSGSNEEKLETLKTVLATSEAGLKGVEESEFILKTVSALGVKSEVELDLTLARGLNYYTGAIFEVKALDVQIGSISGGGRYDNLTGVFGMDGMSGVGISFGADRIFDVLNQLDLYPKE | not failed |
| MSSLTIILIAAISAVLAFLIIFLLKSILFPKKRARIEKNLKSGKYGAAIKDAKSILSKNPRDSEARYLLGKAYLADKKVDLAFIEFKTLNKTAVFNNPATEIEFRTIIADLYLKFQQPDEALKEFMLLNKRDPKNPKPYFQAGQIYESKNMSDQAIAYFQKAIEVDSRFAEAYASLGLLLFKANQIPEAEKAIATALKLAPDNSETLYYHGKILKSKKNYAQALSALEKAARKQEIRSKCFFERGCCYLETNSLEKAEFEFTRAIKSSKQLSAPEVLYSRYLLADCYERQRNIDQAIEQWEAISAVNPKFRNTAQKLAEYSDLRTNDHMKEYLTLIKEEFFKMCRDITEQYFDYPVQALKETKMGCTILAVEKGSEQWLNTRKKPQLLIFSRDGHTITESFLRSVHEEMKKQAVVTSHIITSGAFSPDAIKFAENRPFNLIDRQKLERIVEKVKFTF | failed |
| MSLEALMNVQFFDHAHHKLKIRGLQSPVDVLTFEGREQLSTPFRYDIQFTSSDKAIAPESVLMQDGAFSLTAPPVQGMPVQTALRTLHGVITGFKHLSSSQDEARYEVRLEPRMALLTRSRQNAIYQNQTVPQIVEKILRERHQMRGQDFVFNLKSEYPAREQVMQYGEDDLTFVSRLLSEVGIWFRFATDARLKIEVIEFYDDQSGYERGLTLPLRHPSGLFDGETEAVWGLNTAYSVVEKSVSTRDYNYREATAEMTTGQHDATGGDNTTYGEAYHYADNFLQQGDKEAAESGAFYARIRHERYLNEQAILKGQSTSSLLMPGLEIKVQGDDAPAVFRKGVLITGVTTSAARDRSYELTFTAIPYSERYGYRPALIPRPVMAGTLPARVTSTVKNDIYAHIDKDGRYRVNLDFDRDTWKPGYESLWVRQSRPYAGDTYGLHLPLLAGTEVSIAFEEGNPDRPYIAGVKHDSAHTDHVTIQNEGHHHHHH | not failed |
| MKLFFTDGQFAVAGYSRPDVPFLCDAEMELVDAPNRYLRYIATVKGRTRAANTWRTYGAALYEFFAFLEANGLAWDRVDQSQIAAWRDTMLERGCARSTVNQRLRTVDAFYNWAKSNGMTHSIPFDRTDVWVAKPRGFLAHVDASGDRFEANSLTVQTHKVTPQFLHLDRAIRFLDALTPYRMRLMGYLALLTGMRREEVVSMDCRVLPNPAGRDSNKQIPMHLDPSITPTKGEKDRTVMLPYDLAVALYQYFTFERSRLLAKHRAKFGIETTLLFLSQTGDPLSVNGLNNAFRRVSQKTGIWCTPHMLRHTFGTYELMRMSRQKTQTQALLWVRDRMGHNSITTTEIYVHAADLVEHDDVDGYHLDICRALAHGNPTSKT | failed |
| MRQIGNRRVAPLAILAAVLMGGPTNASTGEFKVAYLYNLSDFTGTIPYSLAKIALDATARETYVISGETVKVFNNSGMEVYRFTNTMESGIVYDAAIDEQGRILVLAYNNGTPSLLLCNYRAEPIKPIEFKGLPEKLAAFKPNRLMLRDGKICLVSLGSMMVVMLDPEGNYVKHIDLAEASSVTEEDRLNTGIGAVAFDSDGSVLFTSPVTGKVFRISANGTVESFGKRGSAPGKFGVPTGIAVDGLGNYYISDKLRCAILVFDRQFKFIYEFGGRGDAPGSLVGPDDLAIDAEGKLYVGQLGNRGVSVFKVTHD | failed |
